The source of these data is patent publication US20150266962A1 (Pfizer, published 2015).

Changes are numbered by the printed parent chain. Names may count otherwise.

To fix the notation:
B1: hu07 heavy chain v1.5 paired with chimeric light chain (antibody, V domains shown)
VH: EVQLVESGGGLVQPGGSLRLSCAASGFSLTKYGVHWVRQAPGKGLEWVGVKWAGGSTDYNSALMSRFTISKDNAKNSLYLQMNSLRAEDTAVYYCARDHRDAMDYWGQGTLVTVSS
VL: QVVLTQSPAIMSASPGERVTMTCTASLSVSSTYLHWYHQKPGSSPKLWIYSTSNLASGVPARFSGSGSGTSYSLTISSMEAEDAATYYCHQYHRSPLTFGSGTKLELK
notes: hIgG1 constant region; the chimeric light chain is the mu07 VL with human kappa constant region; also called hu07v1.5/kc; hu07 v1.5 paired with chimeric light chain Kc
B2: hu07 heavy chain v1.5 / light chain v1.1 (antibody, IgG1, V domains shown)
VH: B1 VH
VL: DIQMTQSPSSLSASVGDRVTITCTASLSVSSTYLHWYQQKPGSSPKLLIYSTSNLASGVPSRFSGSGSGTSFTLTISSLQPEDFATYYCHQYHRSPLTFGGGTKVEIK
notes: hIgG1 constant region and hIg Kappa constant region; also called hu07v1.5/v1.1
B3: hu07 heavy chain v1.5 / light chain v1.0 (antibody, IgG1, V domains shown)
VH: B1 VH
VL: B2 VL with S43K, S44A, S71D
notes: hIgG1 constant region and hIg Kappa constant region; also called hu07v1.5/v1.0
B4: humanized antibody hu08 v1.1 HC/v1.1 LC (antibody, IgG1, V domains shown)
VH: EVQLVESGGGLVQPGGSLRLSCAASGFTFSRNGMSWVRQTPDKRLEWVATVSSGGSYIYYADSVKGRFTISRDNAKNSLYLQMSSLRAEDTAVYYCARQGTTALATRFFDVWGQGTLVTVSS
VL: DIQMTQSPSSLSASVGDRVTITCKASQDVGTAVAWYQQIPGKAPKLLIYSASYRSTGVPDRFSGSGSGTDFSFIISSLQPEDFATYYCQHHYSAPWTFGGGTKVEIK
notes: hIgG1 constant region and hIgKappa constant region; also called hu08 v1.1/1.1; hu08v1.1/1.1
B5: humanized antibody hu08 v1.0 HC/v1.1 LC (antibody, IgG1, V domains shown)
VH: B4 VH with T40A, D42G, R44G, S84N
VL: B4 VL
notes: hIgG1 constant region and hIgKappa constant region; also called hu08 v1.0/1.1
B6: humanized antibody hu08 v1.1 HC/v1.0 LC (antibody, IgG1, V domains shown)
VH: B4 VH
VL: B4 VL with I39K, D60S, S72T, F73L, I74T
notes: hIgG1 constant region and hIgKappa constant region; also called hu08 v1.1/1.0
B7: hu08 with light chain mutation D185A (hu08MAC, unconjugated) (antibody)
heavy: not shown
light: DIQMTQSPSSLSASVGDRVTITCKASQDVGTAVAWYQQKPGKAPKLLIYSASYRSTGVPSRFSGSGSGTDFTLTISSLQPEDFATYYCQHHYSAPWTFGGGTKVEIKRTVAAPSVFIFPPSDEQLKSGTASVVCLLNNFYPREAKVQWKVDNALQSGNSQESVTEQDSKDSTYSLSSTLTLSKAAYEKHKVYACEVTHQGLSSPVTKSFNRGEC
notes: also called hu08/kD185A
B8: hu08v1.0/1.0-K183C (antibody, human IgG1, kappa)
heavy: not shown
light: B7 light with K183C, A185D
notes: also called hu08/kK183C; kK183C
B9: hu08v1.0/1.0-L443C/A111C (antibody)
heavy: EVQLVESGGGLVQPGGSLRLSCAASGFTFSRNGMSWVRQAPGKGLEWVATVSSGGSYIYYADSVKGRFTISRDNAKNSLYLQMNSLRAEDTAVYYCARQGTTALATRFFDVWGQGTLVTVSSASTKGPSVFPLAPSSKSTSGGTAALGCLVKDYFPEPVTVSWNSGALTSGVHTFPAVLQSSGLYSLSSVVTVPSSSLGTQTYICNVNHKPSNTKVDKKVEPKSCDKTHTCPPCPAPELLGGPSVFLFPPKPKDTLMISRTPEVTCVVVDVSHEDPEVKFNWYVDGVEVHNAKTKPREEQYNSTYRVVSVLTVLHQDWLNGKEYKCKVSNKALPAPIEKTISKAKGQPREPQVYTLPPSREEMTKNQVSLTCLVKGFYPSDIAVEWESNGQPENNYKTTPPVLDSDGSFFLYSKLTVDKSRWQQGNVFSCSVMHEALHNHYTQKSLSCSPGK
light: B7 light with A112C, A185D
notes: also called hu08/L443C/kA111C; L443C/kA111C
B10: hu08v1.0/1.0-V422C/L443C (antibody)
heavy: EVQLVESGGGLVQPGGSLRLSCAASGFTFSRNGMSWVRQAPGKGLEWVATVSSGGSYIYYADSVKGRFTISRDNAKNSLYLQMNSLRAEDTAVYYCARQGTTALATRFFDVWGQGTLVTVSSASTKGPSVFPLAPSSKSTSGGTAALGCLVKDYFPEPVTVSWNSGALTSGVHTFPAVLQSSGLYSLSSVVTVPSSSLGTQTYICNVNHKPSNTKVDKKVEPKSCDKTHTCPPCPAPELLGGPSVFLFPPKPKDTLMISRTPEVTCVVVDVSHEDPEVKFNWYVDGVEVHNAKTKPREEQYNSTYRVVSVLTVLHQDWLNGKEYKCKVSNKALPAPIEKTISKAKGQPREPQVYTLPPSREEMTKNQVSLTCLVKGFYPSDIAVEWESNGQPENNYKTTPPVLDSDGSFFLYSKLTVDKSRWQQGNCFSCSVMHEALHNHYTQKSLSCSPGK
light: B7 light with A185D
notes: also called hu08/L443C/V422C; L443C/V422C
B11: hu08v1.0/1.0-L443C (antibody)
heavy: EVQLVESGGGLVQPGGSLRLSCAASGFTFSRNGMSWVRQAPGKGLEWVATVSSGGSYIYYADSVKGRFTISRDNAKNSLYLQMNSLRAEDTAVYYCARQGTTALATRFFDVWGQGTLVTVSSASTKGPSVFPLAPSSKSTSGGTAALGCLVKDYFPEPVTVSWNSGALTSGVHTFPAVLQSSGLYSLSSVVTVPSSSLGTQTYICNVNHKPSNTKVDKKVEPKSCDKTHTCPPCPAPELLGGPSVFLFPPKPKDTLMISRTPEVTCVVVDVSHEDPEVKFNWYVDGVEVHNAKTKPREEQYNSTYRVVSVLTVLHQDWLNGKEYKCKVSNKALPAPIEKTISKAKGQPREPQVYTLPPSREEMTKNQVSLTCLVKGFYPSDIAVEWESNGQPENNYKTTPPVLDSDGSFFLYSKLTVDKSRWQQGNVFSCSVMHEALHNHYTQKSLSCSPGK
light: B7 light with A185D
notes: also called hu08/L443C
B12: hu08v1.0/1.0-Q347C/A111C (antibody)
heavy: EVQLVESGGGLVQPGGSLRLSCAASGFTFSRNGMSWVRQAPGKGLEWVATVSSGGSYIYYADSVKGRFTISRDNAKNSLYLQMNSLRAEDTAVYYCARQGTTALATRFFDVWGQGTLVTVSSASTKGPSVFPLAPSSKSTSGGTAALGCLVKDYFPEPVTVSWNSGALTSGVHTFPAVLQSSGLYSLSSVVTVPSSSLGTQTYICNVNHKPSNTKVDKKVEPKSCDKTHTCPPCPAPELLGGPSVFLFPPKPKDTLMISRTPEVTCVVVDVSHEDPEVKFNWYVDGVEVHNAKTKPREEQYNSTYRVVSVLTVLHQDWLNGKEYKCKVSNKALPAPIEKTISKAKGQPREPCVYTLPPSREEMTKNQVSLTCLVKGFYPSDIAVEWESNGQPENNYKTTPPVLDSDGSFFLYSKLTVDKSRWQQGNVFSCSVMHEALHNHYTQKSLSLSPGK
light: B7 light with A112C, A185D
notes: also called hu08/Q347C/kA111C; Q347C/kA111C
B13: hu08v1.0/1.0-Q347C (antibody)
heavy: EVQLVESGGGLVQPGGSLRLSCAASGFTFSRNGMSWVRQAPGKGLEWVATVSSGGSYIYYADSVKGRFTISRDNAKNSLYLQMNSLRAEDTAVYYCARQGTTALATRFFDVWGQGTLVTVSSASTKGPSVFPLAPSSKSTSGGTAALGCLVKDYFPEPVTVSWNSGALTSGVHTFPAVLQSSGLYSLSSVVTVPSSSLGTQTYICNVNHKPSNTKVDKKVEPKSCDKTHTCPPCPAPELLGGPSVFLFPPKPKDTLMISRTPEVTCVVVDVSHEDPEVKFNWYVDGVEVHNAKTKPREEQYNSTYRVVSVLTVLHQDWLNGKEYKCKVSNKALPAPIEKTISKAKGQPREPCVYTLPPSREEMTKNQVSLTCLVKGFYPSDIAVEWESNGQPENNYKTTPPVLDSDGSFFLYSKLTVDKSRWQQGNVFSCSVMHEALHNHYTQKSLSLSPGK
light: B7 light with A185D
notes: also called hu08/Q347C
B14: hu08v1.0/1.0-Q347C/K183C (antibody, human IgG1, kappa)
heavy: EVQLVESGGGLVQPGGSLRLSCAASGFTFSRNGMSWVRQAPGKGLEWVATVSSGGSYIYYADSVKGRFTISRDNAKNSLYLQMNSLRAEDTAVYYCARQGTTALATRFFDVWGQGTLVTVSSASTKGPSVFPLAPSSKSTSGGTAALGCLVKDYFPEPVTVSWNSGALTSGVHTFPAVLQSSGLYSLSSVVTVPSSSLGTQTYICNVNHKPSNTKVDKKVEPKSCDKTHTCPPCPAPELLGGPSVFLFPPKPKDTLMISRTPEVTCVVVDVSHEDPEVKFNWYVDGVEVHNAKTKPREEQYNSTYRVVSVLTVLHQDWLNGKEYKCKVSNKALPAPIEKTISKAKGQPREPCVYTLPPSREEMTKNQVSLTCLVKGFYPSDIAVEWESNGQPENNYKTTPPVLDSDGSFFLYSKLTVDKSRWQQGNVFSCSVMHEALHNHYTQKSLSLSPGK
light: B7 light with K183C, A185D
notes: also called hu08/Q347C/kK183C; Q347C/kK183C
B15: hu08v1.0/1.0-K392C/L443C (antibody)
heavy: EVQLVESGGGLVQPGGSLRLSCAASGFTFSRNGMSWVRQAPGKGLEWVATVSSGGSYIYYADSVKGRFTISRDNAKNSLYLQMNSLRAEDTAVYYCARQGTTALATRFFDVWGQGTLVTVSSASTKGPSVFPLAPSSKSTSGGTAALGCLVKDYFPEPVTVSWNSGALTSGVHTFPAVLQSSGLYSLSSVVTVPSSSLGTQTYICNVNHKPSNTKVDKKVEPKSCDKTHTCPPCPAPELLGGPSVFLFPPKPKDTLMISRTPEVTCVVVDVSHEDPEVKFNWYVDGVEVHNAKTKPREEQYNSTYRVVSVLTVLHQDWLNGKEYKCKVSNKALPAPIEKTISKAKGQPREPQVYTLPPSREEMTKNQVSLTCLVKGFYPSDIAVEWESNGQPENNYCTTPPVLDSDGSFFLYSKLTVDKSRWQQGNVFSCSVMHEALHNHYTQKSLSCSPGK
light: B7 light with A185D
notes: also called hu08/L443C/K392C; L443C/K392C
B16: hu08v1.0/1.0-L443C/K183C (antibody)
heavy: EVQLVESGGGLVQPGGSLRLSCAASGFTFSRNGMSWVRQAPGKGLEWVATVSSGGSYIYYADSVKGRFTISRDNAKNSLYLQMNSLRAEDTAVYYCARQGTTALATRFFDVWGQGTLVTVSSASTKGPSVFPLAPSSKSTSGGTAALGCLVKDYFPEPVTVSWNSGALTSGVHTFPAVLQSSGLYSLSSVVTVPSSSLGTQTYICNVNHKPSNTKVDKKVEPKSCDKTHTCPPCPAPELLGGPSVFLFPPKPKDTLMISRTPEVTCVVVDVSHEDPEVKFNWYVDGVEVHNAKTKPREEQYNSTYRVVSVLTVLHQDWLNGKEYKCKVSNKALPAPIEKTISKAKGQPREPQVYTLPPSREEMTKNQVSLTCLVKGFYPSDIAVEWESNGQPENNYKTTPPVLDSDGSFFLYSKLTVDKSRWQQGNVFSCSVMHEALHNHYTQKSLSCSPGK
light: B7 light with K183C, A185D
notes: also called hu08/L443C/kK183C; L443C/kK183C
B17: hu08v1.0/1.0-K188C (antibody, human IgG1, kappa)
heavy: not shown
light: B7 light with A185D, K188C
notes: also called hu08/kK188C; kK188C
B18: hu08v1.0/1.0-A111C (antibody)
heavy: not shown
light: B7 light with A112C, A185D
notes: also called hu08/kA111C; kA111C
B19: humanized antibody hu07 heavy chain v1.5 / light chain v1.7 (antibody, IgG1, V domains shown)
VH: B1 VH
VL: B2 VL with L48W, F72Y
notes: hIgG1/kappa; also called hu07Hv1.5/kv1.7

The target of one assay is T1, recombinant human IL-13 receptor alpha 2 (hIL-13-Rα2) (human, UniProt Q14627 27-343).
T1 construct: Recombinant soluble antigen coated on ELISA plates or used in Biacore; also called rec hIL-13Rα2; rhIL-13Rα2
T1 sequence (looked up): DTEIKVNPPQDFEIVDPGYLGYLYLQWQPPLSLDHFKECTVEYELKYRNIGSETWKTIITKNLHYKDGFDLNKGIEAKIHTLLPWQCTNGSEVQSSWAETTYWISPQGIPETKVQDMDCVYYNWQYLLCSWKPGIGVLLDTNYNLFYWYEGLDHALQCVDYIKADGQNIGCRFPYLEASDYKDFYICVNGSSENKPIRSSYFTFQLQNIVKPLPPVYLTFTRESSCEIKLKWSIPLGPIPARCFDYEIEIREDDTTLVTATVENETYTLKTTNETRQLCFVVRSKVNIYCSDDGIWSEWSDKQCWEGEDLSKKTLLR
The assay can be described thus: direct ELISA on rhIL-13Rα2 (given as ED50).
As to B1, the concentration for a half-maximal effect (EC50) came to 0.183 nM.
The same measure, in the same setting: with B2 the figure was 1.21 nM.
Turning to B3, the 50% effective concentration (EC50) amounted to 0.754 nM.

The target of another assay is T1, recombinant human IL-13 receptor alpha …. The experiment in a line: direct ELISA on coated recombinant hIL-13-Rα2. The protocol: Humanized hu08 binding to recombinant hIL-13-Rα2 was evaluated by a standard direct ELISA. Recombinant hIL-13-Rα2 was coated onto a 96-well plate. Serially diluted chimeric antibodies or humanized antibodies in combinations of heavy and light chains of versions 1.0 and 1.1 e.g. hu08 v1.0 HC/1.0 LC, hu08 v1.0 HC/v1.1 LC, hu08 v1.1 HC/v1.0 LC, and hu08 v1.1 HC/v1.1 LC, were added to the plate and incubated at room temperature for 1-2 hours. The binding was detected by HRP conjugated goat anti-human Ig Kappa.
B4: the concentration giving a half-maximal response (EC50) came to 0.198 nM.
Same read-out and setting: with B5 the figure was 0.143 nM; with B6, 0.163 nM.

Another assay shares this target. The assay can be described thus: standard ELISA on hIL-13-Rα2 (given as ED50).
Consider B7, for which the EC50 was 0.108 nM.
The same measure, in the same setting: with B8 the figure was 0.11 nM; with B9, 0.12 nM; with B10, 0.09 nM.
Same read-out and setting: with B11 the figure was 0.1 nM; with B12, 0.1 nM; with B13, 0.1 nM.
On to B14, for which the EC50 was determined as 0.13 nM.
Same read-out and setting: with B15 the figure was 0.09 nM.
Consider B16, for which the concentration for a half-maximal effect (EC50) was 0.11 nM.
On the same count and under the same terms, with B17 the figure was 0.18 nM; with B18, 0.22 nM.

Another assay has the same target. The assay can be described thus: competition ELISA on hIL-13-Rα2, competitor biotinylated ch08. The protocol:
The binding properties of the cysteine mutants to hIL-13-Rα2 were evaluated by a standard ELISA and a competition ELISA. […] This conclusion was confirmed by a competition ELISA with biotinylated ch08.
With B7, the half-inhibitory concentration (IC50) is 2.36 nM.
Still for that read-out and setting: with B8 the figure was 2.47 nM.
Still for that read-out and setting: with B9 the figure was 2.32 nM; with B10, 2.17 nM.
Same read-out and setting: with B11 the figure was 2.25 nM; with B12, 2.44 nM; with B13, 2.07 nM.
For the molecule B14, the IC50 stood at 2.41 nM.
Turning to B15, the 50% inhibitory concentration (IC50) is 2.1 nM.
On the same count and under the same terms, with B16 the figure was 2.45 nM; with B17, 2.73 nM; with B18, 4.07 nM.

A further assay has the same target. The assay can be described thus: direct ELISA on rhIL-13Rα2, purified protein (given as ED50).
For B19, the concentration giving a half-maximal response (EC50) was found to be 0.39 nM.

The next assay addresses T2, cynomolgus monkey IL-13-Rα2 ECD/TM domain with C-terminal Flag tag, on transfected HEK293 cells (cynomolgus monkey, UniProt Q14627 27-363 (human entry)).
T2 construct: also called cyno-IL-13-Rα2; cyno IL-13Rα2; not shown: Flag tag at the C-terminal end
T2 chain: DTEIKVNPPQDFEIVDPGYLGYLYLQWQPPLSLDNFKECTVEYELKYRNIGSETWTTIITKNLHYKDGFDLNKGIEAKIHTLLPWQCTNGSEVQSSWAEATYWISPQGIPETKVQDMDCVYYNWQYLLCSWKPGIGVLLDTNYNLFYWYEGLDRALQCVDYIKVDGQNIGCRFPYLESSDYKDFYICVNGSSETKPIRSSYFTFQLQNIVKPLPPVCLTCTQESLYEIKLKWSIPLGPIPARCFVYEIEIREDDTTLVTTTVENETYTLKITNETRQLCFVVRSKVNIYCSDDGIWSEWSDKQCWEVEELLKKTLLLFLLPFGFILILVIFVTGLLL
The assay can be described thus: FACS on HEK293 cells transfected with cyno-IL-13-Rα2 (given as ED50). The protocol: The ECD/TM domain of cyno IL-13-Rα2 fused with Flag tag at the C-terminal end was cloned into the pSMED2 expression vector. HEK293 suspension cells were transiently transfected with cyno-IL-13-Rα2 containing plasmid and pSMED2 vector (as a mock transfection). The cells were harvested 72 hours later and subjected to FACS analysis. 4 antibodies including ch07, ch08, hu08v1.0/1.0 and hu08v1.1/1.1 were tested. The binding on the cell surface cyno-IL-13-Rα2 was detected with R-Phycoerythrin-labeled goat anti-human or mouse IgG.
Turning to B4, the EC50 came to 2.14 nM.

For the next assay, the target named is T1, recombinant human IL-13 receptor alpha …. The experiment in a line: competition ELISA on coated recombinant hIL-13-Rα2, competitor biotin-ch08. The protocol:
A competition ELISA was performed to assess whether hu08 1.0 and hu08 v1.1 compete with ch08 for IL-13-Rα2 binding. Recombinant hIL-13-Rα2 was coated onto 96-well plates at 50 ul of […] in PBS overnight at 4° C. Plates were then blocked and washed following standard ELISA protocol. A 3-fold serially diluted ch08, hu08 1.0 and hu08 v1.1, and negative control ch07 (2× final concentration) were mixed with biotinylated ch08 (2×EC₅₀). 50 μl of the antibody and biotin-ch08 mixture were added to the plate and incubated for 1 hour at room temperature. The amount of biotin-ch08 bound was detected by HRP conjugated streptavidin.
Turning to B4, the 50% inhibitory concentration (IC50) is 3.16 nM.
The same measure, in the same setting: with B5 the figure was 2.14 nM.
On the same count and under the same terms, with B6 the figure was 2.56 nM.

A further assay shares this target. The experiment in a line: competition ELISA on plate, competitor biotinylated ch07, purified protein.
In the case of B19, the half-inhibitory concentration (IC50) was 7.7 nM.

Another assay shares this target. The experiment in a line: competition ELISA on plate (recombinant IL-13-Rα2), competitor biotinylated ch07.
For B1, the IC50 was 3.03 nM.
B2: the IC50 amounted to 46.6 nM.
The same measure, in the same setting: with B3 the figure was 62 nM.
